According to patent US11230581B2, “Peptides and combination of peptides for use in immunotherapy against ovarian cancer and other cancers” (Immatics Biotechnologies GmbH, priority 2015, dated 2022):

These substances were tested against HLA-A*02:01 (Homo sapiens, UniProt P04439, D140Y/D185E/D98H/E176V/E277Q/G131W/G231S/I119V/I121R/I166T/I218V/L300P/L318F/N151K/N90K/P208A/P217A/Q86G/Q94H/R138H/R169H/T345S) (assay: MHC binding assay (UV-ligand exchange, β2m ELISA, peptide exchange yield)). Details: binding of HLA-class I restricted peptides to HLA-A*02:01, UV-ligand exchange.
Source text: Candidate peptides for T cell based therapies according to the present invention were further tested for their MHC binding capacity (affinity). The individual peptide-MHC complexes were produced by UV-ligand exchange, where a UV-sensitive peptide is cleaved upon UV-irradiation, and exchanged with the peptide of interest as analyzed. Only peptide candidates that can effectively bind and stabilize the peptide-receptive MHC molecules prevent dissociation of the MHC complexes. To determine the yield of the exchange reaction, an ELISA was performed based on the detection of the light chain (β2m) of stabilized MHC complexes. The assay was performed as generally described in Rodenko et al. (Rodenko et al., 2006).
96 well MAXISorp plates (NUNC) were coated over night with 2 ug/ml streptavidin in PBS at room temperature, washed 4× and blocked for 1h at 37° C. in 2% BSA containing blocking buffer. […] Peptide-MHC monomers of the UV-exchange reaction were diluted 100 fold in blocking buffer. Samples were incubated for 1 h at 37° C., washed four times, incubated with 2 ug/ml HRP conjugated anti-β2m for 1h at 37° C., washed again and detected with TMB solution that is stopped with […]. Absorption was measured at 450 nm. Candidate peptides that show a high exchange yield (preferably higher than 50%, most preferred higher than 75%) are generally preferred for a generation and production of antibodies or fragments thereof, and/or T cell receptors or fragments thereof, as they show sufficient avidity to the MHC molecules and prevent dissociation of the MHC complexes.

Peptide exchange (MHC class I binding score, peptide exchange yield), “++” (≥20% = ++):
131 (FVPPVTVFPSL; listed as Homo sapiens) [compound 131], 133 (KVLSNIHTV; listed as Homo sapiens) [compound 133], 140 (YMDAPKAAL; listed as Homo sapiens) [compound 140], 141 (YLDFSNNRL; listed as Homo sapiens) [compound 141], 145 (FLATSGTLAGI; listed as Homo sapiens) [compound 145], 146 (SLATAGDGLIEL; listed as Homo sapiens) [compound 146], 148 (ALNPEIVSV; listed as Homo sapiens) [compound 148], 154 (ALDDGTPAL; listed as Homo sapiens) [compound 154], 157 (SLNDEVPEV; listed as Homo sapiens) [compound 157], 172 (VLYSYTIITV; listed as Homo sapiens) [compound 172], 176 (YLMEGSYNKVFL; listed as Homo sapiens) [compound 176], 180 (FQIDPHSGLVTV; listed as Homo sapiens) [compound 180], 185 (FLIDDKGYTL; listed as Homo sapiens) [compound 185], 186 (TLFFQQNAL; listed as Homo sapiens) [compound 186], 191 (LLQEGQALEYV; listed as Homo sapiens) [compound 191]

Peptide exchange (MHC class I binding score, peptide exchange yield), “+++” (≥50 = +++):
130 (FLWNGEDSALL; listed as Homo sapiens) [compound 130], 132 (LLVEQPPLAGV; listed as Homo sapiens) [compound 132], 134 (YLQELIFSV; listed as Homo sapiens) [compound 134], 135 (ALSEVDFQL; listed as Homo sapiens) [compound 135], 136 (YLADPSNLFVV; listed as Homo sapiens) [compound 136], 138 (YQYPRAILSV; listed as Homo sapiens) [compound 138], 139 (SVMEVNSGIYRV; listed as Homo sapiens) [compound 139], 142 (FLFATPVFI; listed as Homo sapiens) [compound 142], 144 (YIMEPSIFNTL; listed as Homo sapiens) [compound 144], 147 (SLLEAVSFL; listed as Homo sapiens) [compound 147], 149 (NLLELFVQL; listed as Homo sapiens) [compound 149], 150 (RLWEEGEELEL; listed as Homo sapiens) [compound 150], 151 (KILQQLVTL; listed as Homo sapiens) [compound 151], 152 (ILFEDIFDV; listed as Homo sapiens) [compound 152], 155 (RVANLHFPSV; listed as Homo sapiens) [compound 155], 158 (KLFDVDEDGYI; listed as Homo sapiens) [compound 158], 160 (FLFDEEIEQI; listed as Homo sapiens) [compound 160], 161 (ALLEGVNTV; listed as Homo sapiens) [compound 161], 162 (YQQAQVPSV; listed as Homo sapiens) [compound 162], 163 (ALDEMGDLLQL; listed as Homo sapiens) [compound 163], 164 (ALLPQPKNLTV; listed as Homo sapiens) [compound 164], 165 (SLLDEIRAV; listed as Homo sapiens) [compound 165], 166 (YLNHLEPPV; listed as Homo sapiens) [compound 166], 167 (KVLEVTEEFGV; listed as Homo sapiens) [compound 167], 169 (NLPEYLPFV; listed as Homo sapiens) [compound 169], 170 (RLQETLSAA; listed as Homo sapiens) [compound 170], 171 (LLLPLQILL; listed as Homo sapiens) [compound 171], 173 (LLDSASAGLYL; listed as Homo sapiens) [compound 173], 174 (ALAQYLITA; listed as Homo sapiens) [compound 174], 175 (YLFENISQL; listed as Homo sapiens) [compound 175], 179 (KVLNELYTV; listed as Homo sapiens) [compound 179], 181 (LLWAGTAFQV; listed as Homo sapiens) [compound 181], 182 (MLLEAPGIFL; listed as Homo sapiens) [compound 182], 183 (FGLDLVTEL; listed as Homo sapiens) [compound 183], 184 (YLMDINGKMWL; listed as Homo sapiens) [compound 184], 187 (RQISIRGIVGV; listed as Homo sapiens) [compound 187], 188 (GLFPVTPEAV; listed as Homo sapiens) [compound 188], 189 (ALQRKLPYV; listed as Homo sapiens) [compound 189], 190 (FLSSLTETI; listed as Homo sapiens) [compound 190]

Peptide exchange (MHC class I binding score, peptide exchange yield), “+” (≥10% = +):
153 (FLIANVLYL; listed as Homo sapiens) [compound 153]

Peptide exchange (MHC class I binding score, peptide exchange yield), “++++” (≥75% = ++++):
137 (TLVLTLPTV; listed as Homo sapiens) [compound 137], 143 (LLLDITPEI; listed as Homo sapiens) [compound 143], 159 (GLVGNPLPSV; listed as Homo sapiens) [compound 159], 168 (KILDADIQL; listed as Homo sapiens) [compound 168], 177 (YLLPEEYTSTL; listed as Homo sapiens) [compound 177], 178 (ALTEIAFVV; listed as Homo sapiens) [compound 178]
